These are literature values, as cited in paper PMC8780439.

For series [1], the target named is Synaptotagmin II (Homo sapiens) (UniProt Q8N9I0).
Series [2] addresses Synaptotagmin II (Mus musculus) (UniProt P46097).
The target in series [3] is Synaptotagmin I (Homo sapiens) (UniProt P21579).
Sequence of UniProt P21579 (P21579 whole entry): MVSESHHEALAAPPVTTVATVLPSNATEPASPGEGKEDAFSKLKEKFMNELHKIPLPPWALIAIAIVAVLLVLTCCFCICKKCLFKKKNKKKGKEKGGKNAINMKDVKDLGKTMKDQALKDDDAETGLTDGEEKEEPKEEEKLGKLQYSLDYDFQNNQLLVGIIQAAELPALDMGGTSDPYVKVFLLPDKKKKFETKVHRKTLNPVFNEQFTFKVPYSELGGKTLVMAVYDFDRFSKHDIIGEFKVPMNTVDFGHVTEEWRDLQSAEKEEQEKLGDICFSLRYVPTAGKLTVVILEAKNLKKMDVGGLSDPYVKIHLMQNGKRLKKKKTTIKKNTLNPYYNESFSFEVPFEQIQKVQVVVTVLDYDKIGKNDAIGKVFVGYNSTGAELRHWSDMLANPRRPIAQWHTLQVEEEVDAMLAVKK

Sequence of UniProt P46097 (P46097 whole entry): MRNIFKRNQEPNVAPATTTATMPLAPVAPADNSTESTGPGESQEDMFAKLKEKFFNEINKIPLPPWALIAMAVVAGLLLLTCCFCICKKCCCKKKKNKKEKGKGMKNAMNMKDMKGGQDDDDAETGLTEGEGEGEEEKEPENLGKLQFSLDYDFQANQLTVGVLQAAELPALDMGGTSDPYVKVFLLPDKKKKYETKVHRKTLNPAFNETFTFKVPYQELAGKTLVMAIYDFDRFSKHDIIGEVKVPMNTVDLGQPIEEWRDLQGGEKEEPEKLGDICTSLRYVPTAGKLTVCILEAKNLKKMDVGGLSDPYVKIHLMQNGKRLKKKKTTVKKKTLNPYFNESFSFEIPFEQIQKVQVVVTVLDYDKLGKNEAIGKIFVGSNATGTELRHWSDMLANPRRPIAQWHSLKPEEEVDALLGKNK
Sequence of UniProt Q8N9I0 (Q8N9I0 whole entry): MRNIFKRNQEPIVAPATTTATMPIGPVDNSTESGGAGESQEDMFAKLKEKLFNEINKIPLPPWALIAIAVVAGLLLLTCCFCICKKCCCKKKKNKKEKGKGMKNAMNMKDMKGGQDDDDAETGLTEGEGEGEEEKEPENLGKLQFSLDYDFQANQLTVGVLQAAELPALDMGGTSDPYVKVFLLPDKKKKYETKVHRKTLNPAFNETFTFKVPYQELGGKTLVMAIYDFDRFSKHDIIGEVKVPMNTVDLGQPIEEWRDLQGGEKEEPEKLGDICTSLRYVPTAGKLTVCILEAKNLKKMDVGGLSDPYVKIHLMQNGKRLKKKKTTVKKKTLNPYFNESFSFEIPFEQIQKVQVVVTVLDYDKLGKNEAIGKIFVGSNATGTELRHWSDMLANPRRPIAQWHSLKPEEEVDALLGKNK

In the case of “BoNT/B heavy chain (from UniProt B1INP5)”, the equilibrium dissociation constant (Kd) was more than 20 µM in series [1] and 0.13 µM in series [2]. Turning to BoNT/B (from UniProt P10844), the Kd in series [3] is more than 20 µM.
